Data published in patent US20250115677A1, “Anti-CEA Antibody Drug Conjugates and Methods of Use” (BeiGene Switzerland GmbH, priority 2022, published 2025).
Positions count from the first letter of the chain named. Names and notes keep the numbering of the source.

T1: chimeric construct (CHIM) (human)
T1 construct: CEACAM6 AA 1-273 joined to the membrane-peripheral region containing domain B3 of CEA (AA 596-687), C-terminal 6xHis; also called chimeric CEA
T1 chain: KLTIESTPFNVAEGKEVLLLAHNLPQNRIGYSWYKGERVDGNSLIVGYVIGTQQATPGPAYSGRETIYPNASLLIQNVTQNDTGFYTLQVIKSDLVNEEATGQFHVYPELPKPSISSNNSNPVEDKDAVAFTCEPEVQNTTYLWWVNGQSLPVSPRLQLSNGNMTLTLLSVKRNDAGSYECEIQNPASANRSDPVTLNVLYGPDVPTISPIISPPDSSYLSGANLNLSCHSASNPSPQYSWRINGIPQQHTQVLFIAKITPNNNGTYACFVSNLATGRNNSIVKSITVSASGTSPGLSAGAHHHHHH

T2: human CEA on cells (MKN45, LOVO, NCI-H2122, LS174T, CT26/CEA) (human, UniProt P06731 35-685)
T2 construct: Full-length human CEA, endogenous on tumour cell lines or transduced; also called native CEA on living cells; huCEA surface protein
T2 sequence: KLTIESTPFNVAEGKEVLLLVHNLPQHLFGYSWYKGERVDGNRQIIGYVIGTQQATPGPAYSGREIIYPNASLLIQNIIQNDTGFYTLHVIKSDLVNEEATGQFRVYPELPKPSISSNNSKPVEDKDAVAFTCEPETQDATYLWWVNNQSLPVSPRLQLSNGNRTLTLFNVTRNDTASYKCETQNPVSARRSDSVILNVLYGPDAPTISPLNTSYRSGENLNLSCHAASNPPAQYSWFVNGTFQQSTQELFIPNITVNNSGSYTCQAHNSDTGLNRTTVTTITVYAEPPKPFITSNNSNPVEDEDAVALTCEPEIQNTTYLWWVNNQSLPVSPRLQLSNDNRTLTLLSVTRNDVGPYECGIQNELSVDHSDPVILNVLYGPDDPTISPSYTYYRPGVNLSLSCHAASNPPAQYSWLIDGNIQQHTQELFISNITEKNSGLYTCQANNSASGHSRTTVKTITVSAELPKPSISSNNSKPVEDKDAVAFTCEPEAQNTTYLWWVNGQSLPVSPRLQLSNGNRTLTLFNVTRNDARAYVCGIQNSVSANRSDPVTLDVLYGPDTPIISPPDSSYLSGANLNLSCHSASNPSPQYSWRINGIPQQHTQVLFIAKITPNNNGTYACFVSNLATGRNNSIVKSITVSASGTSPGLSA

T3: recombinant soluble human CEA (extracellular domain, AA 1-687 of huCEA, C-terminal 6xHis) (human, UniProt P06731 35-687)
T3 construct: also called sCEA; soluble CEA
T3 sequence: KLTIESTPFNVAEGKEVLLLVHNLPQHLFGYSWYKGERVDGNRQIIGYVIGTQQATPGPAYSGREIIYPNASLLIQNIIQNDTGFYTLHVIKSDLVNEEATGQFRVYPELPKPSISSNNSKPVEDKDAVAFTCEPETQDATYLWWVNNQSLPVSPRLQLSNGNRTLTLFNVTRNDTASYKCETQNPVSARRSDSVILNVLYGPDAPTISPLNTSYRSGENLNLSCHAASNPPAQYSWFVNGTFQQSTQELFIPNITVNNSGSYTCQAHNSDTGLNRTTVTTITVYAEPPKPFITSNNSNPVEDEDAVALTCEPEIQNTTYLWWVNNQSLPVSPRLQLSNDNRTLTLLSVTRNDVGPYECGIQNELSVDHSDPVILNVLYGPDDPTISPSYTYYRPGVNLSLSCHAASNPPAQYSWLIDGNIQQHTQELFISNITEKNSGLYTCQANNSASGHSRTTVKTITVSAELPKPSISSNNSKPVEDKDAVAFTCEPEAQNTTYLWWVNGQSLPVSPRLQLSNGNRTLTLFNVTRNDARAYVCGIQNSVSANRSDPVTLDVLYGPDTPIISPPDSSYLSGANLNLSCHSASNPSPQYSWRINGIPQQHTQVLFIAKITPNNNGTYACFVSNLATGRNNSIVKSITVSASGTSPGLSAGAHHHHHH

T4: CHIM (Homo sapiens, UniProt P06731, A174T/A211G/A239V/A261S/A267P/C12H/D173N/E253A/E283V/F203L/F272R/F277P/F63I/H123Q/H61N/H9C/I100T/I112V/I113T/I13V/I230T/I80V/INS244IISP/K155N/K214E/L18V/L245P/L62R/N182G/N204S/N246D/N288K/P266S/P287A/Q16K/Q78L/R139H/R17E/R198M/R224N/R250L/R77S/S228P/S280H/T171V/T206K/T210A/T217I/T247S/T276I/V221A/V273I/V291P/V55A/W11L)
T4 construct: CEACAM6 N-terminal part (fusion partner); 6xHis (C); made in house; host or cells: HEK293-based mammalian cell expression system
T4 sequence (P06731 with tags, fused parts or gaps H9C/W11L/C12H/I13V/Q16K/R17E/L18V/V55A/H61N/L62R/F63I/R77S/Q78L/I80V/I100T/I112V/I113T/H123Q/R139H/K155N/T171V/D173N/A174T/N182G/R198M/F203L/N204S/T206K/T210A/A211G/K214E/T217I/V221A/R224N/S228P/I230T/A239V/INS244IISP/L245P/N246D/T247S/R250L/E253A/A261S/P266S/A267P/F272R/V273I/T276I/F277P/S280H/E283V/P287A/N288K/V291P): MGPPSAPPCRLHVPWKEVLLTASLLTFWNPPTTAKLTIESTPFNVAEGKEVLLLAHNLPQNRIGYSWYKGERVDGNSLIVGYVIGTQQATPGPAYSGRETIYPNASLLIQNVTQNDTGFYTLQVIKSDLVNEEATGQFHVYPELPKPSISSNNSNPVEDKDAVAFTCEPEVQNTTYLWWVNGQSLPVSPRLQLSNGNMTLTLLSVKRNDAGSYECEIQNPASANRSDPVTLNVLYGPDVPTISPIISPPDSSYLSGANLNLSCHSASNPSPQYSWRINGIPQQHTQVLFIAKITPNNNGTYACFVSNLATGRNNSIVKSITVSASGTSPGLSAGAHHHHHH

B1: BGA0089 (antibody, human IgG1, V domains shown)
VH: QVQLVQSGAEVKKPGASVKVSCKASGYIFTSYWLHWVRQAPGQGLEWIGYINPQTGYTNYAQKFQGRVTMTRDTSTSTVYMELSSLRSEDTAVYYCAREYGNYNYPLDYWGQGTLVTVSS
VL: DIQMTQSPSSLSASVGDRVTITCRASENQYGYLAWYQQKPGKVPKLLIYNTKNLVEGVPSRFSGSGSGTDFTLTISSLQPEDVATYYCQHHLGTPYTFGQGTKVEIK
notes: Built on the BGA7592-1F-ph-M (BGA2433) template; human IgG1/kappa
B2: BGA1789 (antibody, human IgG1, V domains shown)
VH: B1 VH with N59S
VL: B1 VL with T51Y
notes: as for B1
B3: BGA2107 (antibody, human IgG1, V domains shown)
VH: B1 VH with Q54N, N59S
VL: B1 VL
notes: as for B1
B4: BGA6710 variant L92E (antibody, V domains shown)
VH: B1 VH with W33Y, N59S
VL: B1 VL with T51Y, L92E
notes: IgG format; L92E in the light chain
B5: BGA6710 variant Q54E, Y57E (antibody, V domains shown)
VH: B1 VH with W33Y, Q54E, Y57E, N59S
VL: B1 VL with T51Y
notes: IgG format; both changes in the heavy chain
B6: BGA6710 variant Y57D (antibody, V domains shown)
VH: B1 VH with W33Y, Y57D, N59S
VL: B1 VL with T51Y
notes: IgG format; change in the heavy chain
B7: BGA6710 variant L92E, Y57K (antibody, V domains shown)
VH: B1 VH with W33Y, Y57K, N59S
VL: B1 VL with T51Y, L92E
notes: IgG format
B8: BGA6710 variant Q54E, Y57K (antibody, V domains shown)
VH: B1 VH with W33Y, Q54E, Y57K, N59S
VL: B1 VL with T51Y
notes: as for B5
B9: BGA6710 variant K13E, Y57K (antibody, V domains shown)
VH: B1 VH with K13E, W33Y, Y57K, N59S
VL: B1 VL with T51Y
notes: as for B5
B10: BGA9962 (antibody, human IgG1, kappa, V domains shown)
VH: B1 VH with W33Y, Y57K, N59S
VL: DIQMTQSPSSLSASVGDRVTITCRASENQYGYLAWYQQKPGKVPKLLIYNYKNLVEGVPSRFSGSGSGTDFTLTISSLQPEDVATYYCQHHLGTPYTFGQGTKVEIKR
modifications: linker-payload conjugated after reduction of the antibody, DAR 8 (structure only as a drawing in Table 18)
B11: BGA8357 (antibody, human IgG1, kappa, V domains shown)
VH: B1 VH with W33Y, Y57K, N59S
VL: B10 VL
modifications: linker-payload conjugated after reduction of the antibody, DAR 8 profile (structure only as a drawing in Table 18)
B12: BGA0084 (antibody, human IgG1, kappa, V domains shown)
VH: B1 VH with W33Y, Y57K, N59S
VL: B10 VL
modifications: linker-payload conjugated after reduction of the antibody, DAR 8 profile (structure only as a drawing in Table 18)
B13: BGA7413 (antibody, human IgG1, kappa, V domains shown)
VH: B1 VH with W33Y, Y57K, N59S
VL: B10 VL
modifications: linker-payload conjugated after reduction of the antibody, DAR 8 profile (structure only as a drawing in Table 18)
B14: BGA2490 (antibody, human IgG1, kappa, V domains shown)
VH: B1 VH with W33Y, Y57K, N59S
VL: B10 VL
modifications: linker-payload conjugated after reduction of the antibody, DAR 8 profile (structure only as a drawing in Table 18)
B15: BGA2588 (BGA5384 conjugated with DXD) (antibody, human IgG1, kappa, V domains shown)
VH: B1 VH with W33Y, Y57K, N59S
VL: B10 VL
modifications: DXD linker-payload conjugated after reduction of the antibody, DAR 8 profile (structure only as a drawing in Table 18)

Biological target: T1, chimeric construct (CHIM)
Assay: SPR; binding to CHIM
Settings: not given

In order of falling Kd:
1. B1  21.5 nM
2. B3  19.2 nM
3. B2  14.4 nM

In order of falling koff:
1. B2  0.000463 s⁻¹
2. B1  0.000394 s⁻¹
3. B3  0.00038 s⁻¹

In order of rising kon:
1. B1  18400 M⁻¹ s⁻¹
2. B3  19800 M⁻¹ s⁻¹
3. B2  32100 M⁻¹ s⁻¹

Each molecule was assayed against T2, human CEA on cells (MKN45, LOVO, …) (assay: flow cytometry on MKN45 cells). Settings: not given.

In order of rising EC50:
1. B6  0.56 µg/mL
2. B8  0.58 µg/mL
3. B5  0.65 µg/mL
4. B7  1.09 µg/mL
5. B4  1.19 µg/mL

In order of falling Top:
1. B7  970
2. B6  949
3. B4  945
4. B5  927
5. B8  902

What follows are molecules tested against T3, recombinant soluble human CEA … (assay: SPR; kinetics on huCEA, IgG format). Settings: not given.

In order of rising Kd:
1. B9  1.34 nM
2. B6  1.82 nM
3. B5  2.14 nM
4. B8  2.36 nM
5. B4  4.5 nM
6. B7  5.29 nM

In order of rising koff:
1. B7  0.000177 s⁻¹
2. B4  0.000188 s⁻¹
3. B6  0.000195 s⁻¹
4. B5  0.00025 s⁻¹
5. B8  0.00026 s⁻¹

In order of rising kon:
1. B7  33400 M⁻¹ s⁻¹
2. B4  41700 M⁻¹ s⁻¹
3. B6  107000 M⁻¹ s⁻¹
4. B8  110000 M⁻¹ s⁻¹
5. B5  117000 M⁻¹ s⁻¹

The molecules below were run against T2, human CEA on cells (MKN45, LOVO, …) (assay: cell-based or functional assay). Settings: not given.

In order of rising “EC50, cell killing of MKN45 cells” value:
1. B11  0.38 nM
2. B12  0.38 nM
3. B10  0.39 nM
4. B14  0.44 nM
5. B13  0.46 nM
6. B15  0.46 nM

In order of rising “Emax, cell killing of MKN45 cells” value:
1. B15  85
2. B10  87.1
3. B13  87.2
4. B12  88.8
5. B14  89
6. B11  89.1

Biological target: T2, human CEA on cells (MKN45, LOVO, …)
Assay: cell-based or functional assay
Settings: not given
Remark: another data set of the same source

In order of rising “EC50, cell killing of NCI-H2122 cells” value:
1. B11  0.14 nM
2. B10  0.17 nM
3. B12  0.19 nM
4. B14  0.19 nM
5. B15  0.22 nM

In order of falling “Emax, cell killing of NCI-H2122 cells” value:
1. B11  83.9
2. B12  83.8
3. B14  82.8
4. B13  81.5
5. B10  80
6. B15  74

These molecules were tested against T4, CHIM (assay: SPR affinity comparison of affinity matured humanized BGA7592 variants on CHIM). Settings: not given.
Format: binding

In the case of B1, the “binding activities compared to BGA7592-1F-ph-F (BGA9521)” value is reported as “improved binding activities”.
In the case of B3, the “binding activities compared to BGA7592-1F-ph-F (BGA9521)” value is reported as “improved binding activities”.

Same assay, conditions: Table 11, SPR to CHIM

In order of falling Ka:
1. B3  19800 M⁻¹ s⁻¹
2. B1  18400 M⁻¹ s⁻¹

In order of rising Rmax:
1. B1  59.4 RU
2. B3  71.1 RU

Biological target: T2, human CEA on cells (MKN45, LOVO, …)
Assay: cell-based or functional assay
Settings: not given
Remark: another data set of the same source

In order of rising “EC50, cell killing of LS174T cells” value:
1. B11  0.67 nM
2. B14  0.76 nM
3. B10  0.83 nM
4. B12  0.85 nM
5. B13  0.88 nM
6. B15  1.12 nM

In order of rising “Emax, cell killing of LS174T cells” value:
1. B10  66.7
2. B13  66.9
3. B15  69.7
4. B12  69.9
5. B14  70.3
6. B11  71.8
